# Experimental data as given in US10781452B2, “FLT3 receptor antagonists for the treatment or the prevention of pain disorders” (INSTITUT NATIONAL DE LA SANTE ET DE LA RECHERCHE MEDICALE …, priority 2010, dated 2020).
# B1: A3 antibody: human monoclonal antibody against FLT3; VH SEQ ID NO:1, VL SEQ ID NO:2 (antibody, V domains shown)
# VH: EVQLVESGGSLVKPGGSLRLSCAASGFTFSNSYMNWVRQAPGKGLEWISDISGSSRDIDYADFVKGRFTISRDNATNSLYLQMNSLRAEDTAVYYCVRSGNSGMDVWGRGTLVTVSS
# VL: QSVLTQPASVSGSPGQSITISCAGTSSDVGGGYYVSWYQQHPGKAPKLMIYYDSYRPSGVSNRFSGSKSGNTASLTISGLQAEDEADYYCSSYTNNSTRVFGGGTKLEIK
# modifications: Synthetic VH domain of A3; Synthetic VL region of A3
# Target: T1, full-length hFLT3 (Homo sapiens, UniProt P36888)
# T1 construct: host or cells: HEK293T
# T1 sequence (P36888 27-993): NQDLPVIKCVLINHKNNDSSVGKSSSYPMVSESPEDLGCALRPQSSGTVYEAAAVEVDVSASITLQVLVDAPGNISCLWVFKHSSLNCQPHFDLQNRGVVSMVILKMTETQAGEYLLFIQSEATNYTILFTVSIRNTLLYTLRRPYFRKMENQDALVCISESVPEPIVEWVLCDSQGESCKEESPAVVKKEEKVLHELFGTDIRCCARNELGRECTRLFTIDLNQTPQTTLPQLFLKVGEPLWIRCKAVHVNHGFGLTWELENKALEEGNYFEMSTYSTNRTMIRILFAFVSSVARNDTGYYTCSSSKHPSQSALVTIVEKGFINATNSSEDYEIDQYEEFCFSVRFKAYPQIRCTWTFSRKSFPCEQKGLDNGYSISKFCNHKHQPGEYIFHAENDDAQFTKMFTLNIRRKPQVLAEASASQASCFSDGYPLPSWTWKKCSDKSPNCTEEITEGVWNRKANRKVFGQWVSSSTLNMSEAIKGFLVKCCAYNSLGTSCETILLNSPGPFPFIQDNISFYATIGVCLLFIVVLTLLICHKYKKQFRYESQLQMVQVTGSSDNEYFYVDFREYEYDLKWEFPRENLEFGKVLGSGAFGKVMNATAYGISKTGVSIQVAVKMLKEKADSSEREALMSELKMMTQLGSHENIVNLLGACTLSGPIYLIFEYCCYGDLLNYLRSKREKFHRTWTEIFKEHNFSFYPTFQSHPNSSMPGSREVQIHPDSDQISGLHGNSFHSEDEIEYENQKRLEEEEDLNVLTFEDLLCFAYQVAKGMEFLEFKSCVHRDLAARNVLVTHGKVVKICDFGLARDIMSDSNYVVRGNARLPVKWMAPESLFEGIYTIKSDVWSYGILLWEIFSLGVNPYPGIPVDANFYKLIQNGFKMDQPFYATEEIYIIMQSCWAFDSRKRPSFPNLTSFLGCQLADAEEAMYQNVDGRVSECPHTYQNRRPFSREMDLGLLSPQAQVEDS
# Experiment: TR-FRET displacement of Red-FL binding, HEK cells expressing full-length hFLT3
# Details: HEK cells expressing full-length hFLT3, 0.5 nM Red-FL
# Experimental: The binding of the A3 antibody to full-length hFLT3 and mFLT3 was measured by displacement of extracellular FL binding on recombinant HEK cells by using time-resolved fluorescence resonance energy transfer (TR-FRET).
# Chemicals and reagents. The Tag-lite® labeling medium was from Cisbio Bioassays (Condolet, France). The Lumi4-Tb derivative of O6-Benzylguanine was synthesized by Cisbio Bioassays and is commercialized as SNAP-Lumi4-Tb (Cisbio Bioassays, Ref. SSNPTBE).
# A recombinant rh-FLT3-L was produced as previously reported (Verstraete K, et al. Efficient production of bioactive recombinant human Flt3 ligand in E. coli. Protein J, 2009 28: 57-65) and labeled with a red fluorescent probe (Red-FL). Poly-L-ornithine (MW of 30,000-70,000 daltons) was from Sigma-Aldrich. The plasmids encoding for the SNAP tagged human FLT3 (pSNAP-hFLT3) or the mouse FLT3 (pSNAP-mFLT3) used for transient transfection was obtained from Cisbio Bioassays. Monoclonal antibodies against FLT3 (8F2) and phosphotyrosine FLT3 (PY969) were purchased from Cell Signaling Technology and labeled with Lumi4-Tb and d2 respectively, by Cisbio.
# Cell culture. HEK293T cells, used for binding assays, were maintained in DMEM Glutamax (Invitrogen) supplemented with antibiotics (penicillin 50 U/ml, streptomycin 50 μg/ml) and 10% heat-inactivated Fetal Calf Serum.
# Transfection procedures. […]
molecule,measurement,value
B1,"IC50, displacement of FL binding",about 17 μg/ml
